Results reported in the supplement of paper PMC7125110.
± gives the standard error. For some assays here: Variants at the floor of the assay were thinned out.

B1: glmS ribozyme (parent)
chain: AUAAAAGCGCCAGAACUACAGAAAUGUAGUUGACGAGGAGGAGGUUUAUCGAAUUUUCGGCGGAUGCCUCCAAA

Columns and labels:
Settings in all cases: with glucosamine-6-phosphate
glucosamine-6-phosphate [1] = variants of: B1; assay: kcat; higher = faster cleavage; RNA array
Method in brief: (§1)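 Tracking of barcoded ribozyme variants used a hybridised Cy3 probe at 37 °C, after in situ transcription by E. coli RNA polymerase on sequenced MiSeq chips. The flowed solution held 40 μM to 10 mM glucosamine-6-phosphate in HEPES/KCl/Mg(OAc)2 buffer, and imaging ran over ~14 h. kobs was taken from exponential decay fits of normalised per-tile medians, and kcat and KM from weighted Michaelis–Menten fits.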

glucosamine-6-phosphate [2] = variants of: B1; assay: self-cleavage kobs at 40 uM GlcN6P; higher = faster cleavage; RNA array
Method in brief: as §1

glucosamine-6-phosphate [3] = variants of: B1; assay: self-cleavage kobs at 160 uM GlcN6P; higher = faster cleavage; RNA array
Method in brief: as §1

glucosamine-6-phosphate [4] = variants of: B1; assay: self-cleavage kobs at 640 uM GlcN6P; higher = faster cleavage; RNA array
Method in brief: as §1

glucosamine-6-phosphate [5] = variants of: B1; assay: self-cleavage kobs at 2500 uM GlcN6P; higher = faster cleavage; RNA array
Method in brief: as §1

glucosamine-6-phosphate [6] = variants of: B1; assay: self-cleavage kobs at 10000 uM GlcN6P; higher = faster cleavage; RNA array
Method in brief: as §1

glucosamine-6-phosphate [7] = variants of: B1; assay: KM; higher = weaker cofactor use; RNA array
Method in brief: as §1

Variant: AUAAAAGCGCCAGAGCUACAGAAAUGUAGUUGACGAGGAGGAGGUUUAUCGAAUUUUCGGCGGAUGACUCCAAA [A15G C67A]
- kcat (glucosamine-6-phosphate [1]): 0.00627 ± 0.0024 s⁻¹
- self-cleavage kobs at 40 uM GlcN6P (glucosamine-6-phosphate [2]): 0.000534 ± 0.00011 s⁻¹
- self-cleavage kobs at 160 uM GlcN6P (glucosamine-6-phosphate [3]): 0.000961 ± 0.00011 s⁻¹
- self-cleavage kobs at 640 uM GlcN6P (glucosamine-6-phosphate [4]): 0.00406 ± 0.0007 s⁻¹
- self-cleavage kobs at 2500 uM GlcN6P (glucosamine-6-phosphate [5]): 0.00376 ± 0.00071 s⁻¹
- self-cleavage kobs at 10000 uM GlcN6P (glucosamine-6-phosphate [6]): 0.00896 ± 0.0018 s⁻¹

Variant: AUAAAAGCGCCAGAGCUACAGAAAUGUAGUUGACGGGGAGGAGGUUUAUCGAAUUUUCGGCGGAUGCCUCCAAA [A15G A36G]
- kcat (glucosamine-6-phosphate [1]): 1.79e-05 ± 1.6e-07 s⁻¹
- KM (glucosamine-6-phosphate [7]): 8.45 ± 0.15 mM

Variant: AUAAAAGCGCCAGAGCUACAGAAAUGUAGUUGACGAGGUGGAGGUUUAUCGAAUUUUCGGCGGAUGCCUCCAAA [A15G A39U]
- kcat (glucosamine-6-phosphate [1]): 0.0505 ± 0.019 s⁻¹
- KM (glucosamine-6-phosphate [7]): 4.74 ± 2.3 mM
- self-cleavage kobs at 40 uM GlcN6P (glucosamine-6-phosphate [2]): 0.0006 ± 7.9e-05 s⁻¹
- self-cleavage kobs at 160 uM GlcN6P (glucosamine-6-phosphate [3]): 0.00146 ± 0.00026 s⁻¹
- self-cleavage kobs at 640 uM GlcN6P (glucosamine-6-phosphate [4]): 0.00551 ± 0.001 s⁻¹
- self-cleavage kobs at 2500 uM GlcN6P (glucosamine-6-phosphate [5]): 0.0136 ± 0.0025 s⁻¹
- self-cleavage kobs at 10000 uM GlcN6P (glucosamine-6-phosphate [6]): 0.0387 ± 0.0051 s⁻¹

Variant: AUAAAAGCGCCAGAGCUACAGAAAUGUAGUUGACGAGGCGGAGGUUUAUCGAAUUUUCGGCGGAUGCCUCCAAA [A15G A39C]
- kcat (glucosamine-6-phosphate [1]): 0.0119 ± 0.0054 s⁻¹
- self-cleavage kobs at 40 uM GlcN6P (glucosamine-6-phosphate [2]): 0.000149 ± 1.5e-05 s⁻¹
- self-cleavage kobs at 160 uM GlcN6P (glucosamine-6-phosphate [3]): 0.000242 ± 6.6e-05 s⁻¹
- self-cleavage kobs at 640 uM GlcN6P (glucosamine-6-phosphate [4]): 0.0011 ± 0.00014 s⁻¹
- self-cleavage kobs at 2500 uM GlcN6P (glucosamine-6-phosphate [5]): 0.00446 ± 0.00072 s⁻¹
- self-cleavage kobs at 10000 uM GlcN6P (glucosamine-6-phosphate [6]): 0.00811 ± 0.00088 s⁻¹

Variant: AUAAAAGCGCCAGAGCUACAGAAAUGUAGUUGAGGAGGAGGAGGUUUAUCGAAUUUUCGGCGGAUGCCUCCAAA [A15G C34G]
- kcat (glucosamine-6-phosphate [1]): < 1e-05 s⁻¹
- self-cleavage kobs at 40 uM GlcN6P (glucosamine-6-phosphate [2]): < 1e-05 s⁻¹
- self-cleavage kobs at 640 uM GlcN6P (glucosamine-6-phosphate [4]): < 1e-05 s⁻¹

Variant: AUAAAAGCGCCAGAGCUACAGAAAUGUAGUUGACGAGGAGGAGGUUUAUCGAAUUUUCGGGGGAUGCCUCCAAA [A15G C61G]
- kcat (glucosamine-6-phosphate [1]): < 1e-05 s⁻¹
- self-cleavage kobs at 40 uM GlcN6P (glucosamine-6-phosphate [2]): < 1e-05 s⁻¹
- self-cleavage kobs at 160 uM GlcN6P (glucosamine-6-phosphate [3]): < 1e-05 s⁻¹
- self-cleavage kobs at 640 uM GlcN6P (glucosamine-6-phosphate [4]): < 1e-05 s⁻¹
- self-cleavage kobs at 2500 uM GlcN6P (glucosamine-6-phosphate [5]): < 1e-05 s⁻¹

Variant: AUAAAAGCGCCAGAGCUACAGAAAUGUAGUUGACGAGGAGGGGGUUUAUCGAAUUUUCGGCGGAUGCCUCCAAA [A15G A42G]
- kcat (glucosamine-6-phosphate [1]): 0.132 ± 0.031 s⁻¹
- KM (glucosamine-6-phosphate [7]): 3.78 ± 0.97 mM
- self-cleavage kobs at 40 uM GlcN6P (glucosamine-6-phosphate [2]): 0.00132 ± 0.00047 s⁻¹
- self-cleavage kobs at 160 uM GlcN6P (glucosamine-6-phosphate [3]): 0.00525 ± 0.0011 s⁻¹
- self-cleavage kobs at 640 uM GlcN6P (glucosamine-6-phosphate [4]): 0.024 ± 0.0099 s⁻¹

Variant: AUAAAAGCGCCAGAGCUACAGAAAUGUAGUUGACGAGGAGGAGGUUUAUCGAAUUUUAGGCGGAUGCCUCCAAA [A15G C58A]
- kcat (glucosamine-6-phosphate [1]): 0.000835 ± 8.2e-05 s⁻¹
- KM (glucosamine-6-phosphate [7]): 5.24 ± 0.79 mM
- self-cleavage kobs at 160 uM GlcN6P (glucosamine-6-phosphate [3]): 2.68e-05 ± 1.2e-05 s⁻¹
- self-cleavage kobs at 640 uM GlcN6P (glucosamine-6-phosphate [4]): 8.63e-05 ± 1e-05 s⁻¹
- self-cleavage kobs at 2500 uM GlcN6P (glucosamine-6-phosphate [5]): 0.000303 ± 4e-05 s⁻¹
- self-cleavage kobs at 10000 uM GlcN6P (glucosamine-6-phosphate [6]): 0.000537 ± 5.2e-05 s⁻¹

Variant: AUAAAAGCGCCAGAGCUACAGAAAUGUAGUUGACGAGGAGGAGGUUUAUCGAAUUUUUGGCGGAUGCCUCCAAA [A15G C58U]
- kcat (glucosamine-6-phosphate [1]): 0.000166 ± 4e-05 s⁻¹
- self-cleavage kobs at 2500 uM GlcN6P (glucosamine-6-phosphate [5]): 2.52e-05 ± 1.2e-05 s⁻¹
- self-cleavage kobs at 10000 uM GlcN6P (glucosamine-6-phosphate [6]): 7.17e-05 ± 9.6e-06 s⁻¹

Variant: AUAAAAGCGCCAGACCUACAGAAAUGUAGUUGACGAGGAGGAGGUUCAUCGAAUUUUCGGCGGAUGCCUCUAAA [A15C U47C C71U]
- kcat (glucosamine-6-phosphate [1]): 0.000301 ± 5.9e-06 s⁻¹
- KM (glucosamine-6-phosphate [7]): 0.867 ± 0.047 mM
- self-cleavage kobs at 640 uM GlcN6P (glucosamine-6-phosphate [4]): 0.000129 ± 2.7e-05 s⁻¹
- self-cleavage kobs at 2500 uM GlcN6P (glucosamine-6-phosphate [5]): 0.000228 ± 4.9e-05 s⁻¹
- self-cleavage kobs at 10000 uM GlcN6P (glucosamine-6-phosphate [6]): 0.000275 ± 4.5e-05 s⁻¹

Variant: AUAAAAGCGCCAGAGCUACAGAAAUGUAGUUGACGAGGAGGAGGUUUAUCGAUUUUUCGGCGGAUGCCUCCAAA [A15G A53U]
- kcat (glucosamine-6-phosphate [1]): 0.0369 ± 0.0054 s⁻¹
- KM (glucosamine-6-phosphate [7]): 2.5 ± 0.47 mM
- self-cleavage kobs at 40 uM GlcN6P (glucosamine-6-phosphate [2]): 0.000575 ± 0.00011 s⁻¹
- self-cleavage kobs at 160 uM GlcN6P (glucosamine-6-phosphate [3]): 0.0027 ± 0.00073 s⁻¹
- self-cleavage kobs at 640 uM GlcN6P (glucosamine-6-phosphate [4]): 0.00647 ± 0.002 s⁻¹
- self-cleavage kobs at 2500 uM GlcN6P (glucosamine-6-phosphate [5]): 0.0176 ± 0.0065 s⁻¹
- self-cleavage kobs at 10000 uM GlcN6P (glucosamine-6-phosphate [6]): 0.0306 ± 0.0073 s⁻¹

Variant: AUAAAAGCGCCAGACCUACAGAAAUGUAGUUGACGAGGAGGAGGUUCAUCGAAUUUUCGGCGGAUGCCUCCAAA [A15C U47C]
- kcat (glucosamine-6-phosphate [1]): 0.000622 ± 8.7e-05 s⁻¹
- KM (glucosamine-6-phosphate [7]): 3.55 ± 0.83 mM
- self-cleavage kobs at 640 uM GlcN6P (glucosamine-6-phosphate [4]): 0.000108 ± 2e-05 s⁻¹
- self-cleavage kobs at 2500 uM GlcN6P (glucosamine-6-phosphate [5]): 0.000244 ± 4.5e-05 s⁻¹
- self-cleavage kobs at 10000 uM GlcN6P (glucosamine-6-phosphate [6]): 0.000465 ± 7.5e-05 s⁻¹

Variant: AUAAAAGCGCCAGAGCUACAGAAAUGUAGUUGACGAGGAGGAGGUUUUUCGAAUUUUCGGCGGAUGCCUCCAAA [A15G A48U]
- kcat (glucosamine-6-phosphate [1]): 0.000853 ± 8.9e-05 s⁻¹
- KM (glucosamine-6-phosphate [7]): 3.93 ± 0.59 mM
- self-cleavage kobs at 160 uM GlcN6P (glucosamine-6-phosphate [3]): 3.92e-05 ± 9.3e-06 s⁻¹
- self-cleavage kobs at 640 uM GlcN6P (glucosamine-6-phosphate [4]): 0.000113 ± 1.4e-05 s⁻¹
- self-cleavage kobs at 2500 uM GlcN6P (glucosamine-6-phosphate [5]): 0.000349 ± 4.7e-05 s⁻¹
- self-cleavage kobs at 10000 uM GlcN6P (glucosamine-6-phosphate [6]): 0.000604 ± 8.6e-05 s⁻¹

Variant: AUAAAAGCGCCAGAGCUACAGAAAUGUAGUUGACGAGGAGGAGGUUUAUCGUAUUUUCGGCGGAUGCCUCCAAA [A15G A52U]
- kcat (glucosamine-6-phosphate [1]): 0.000384 ± 8.3e-05 s⁻¹
- KM (glucosamine-6-phosphate [7]): 5.4 ± 2 mM
- self-cleavage kobs at 640 uM GlcN6P (glucosamine-6-phosphate [4]): 3.21e-05 ± 7.2e-06 s⁻¹
- self-cleavage kobs at 2500 uM GlcN6P (glucosamine-6-phosphate [5]): 0.000147 ± 1.6e-05 s⁻¹
- self-cleavage kobs at 10000 uM GlcN6P (glucosamine-6-phosphate [6]): 0.00024 ± 2.3e-05 s⁻¹

Variant: AUAAAAGCGCCAGAGCUACAGAAAUGUAGUUGACGAGGAGGAGGUUUAUCGGAUUUUCGGCGGAUGCCUCCAAA [A15G A52G]
- kcat (glucosamine-6-phosphate [1]): 0.00182 ± 0.00044 s⁻¹
- KM (glucosamine-6-phosphate [7]): 3.75 ± 1.4 mM
- self-cleavage kobs at 160 uM GlcN6P (glucosamine-6-phosphate [3]): 8.59e-05 ± 2.3e-05 s⁻¹
- self-cleavage kobs at 640 uM GlcN6P (glucosamine-6-phosphate [4]): 0.000293 ± 3.7e-05 s⁻¹
- self-cleavage kobs at 2500 uM GlcN6P (glucosamine-6-phosphate [5]): 0.000596 ± 8.6e-05 s⁻¹
- self-cleavage kobs at 10000 uM GlcN6P (glucosamine-6-phosphate [6]): 0.0015 ± 0.00019 s⁻¹
